Laboratory results from PMC9057628.

How the values were obtained:
[1] = biological target: recombinant full-length human TTRV122I with N-terminal AviTag (human) (UniProt P02766); test: SEC; time series: TTR in 1M urea pH 7.6 at room temperature on a rotating platform for 1 hour to 7 days; oligomers between 200 and 600 kDa; also with 100 uM H2O2 or 5 mM DTT
[2] = biological target: recombinant full-length human TTRWT with N-terminal AviTag (human) (UniProt P02766); test: as above

Substance	stoichiometry N (protein subunits) [1]	stoichiometry N (protein subunits) [2]
recombinant full-length human TTRV122I with N-terminal AviTag (from UniProt P02766 21-147) (natural protein)	15	
recombinant full-length human TTRWT with N-terminal AviTag (from UniProt P02766 21-147) (natural protein)		10
